According to patent US20250186614A1, “COMPACT DRUG RESPONSIVE DOMAINS FOR REGULATION OF FUNCTION/ABUNDANCE AND DELIVERY OF POLYPEPTIDE PAYLOADS” (OBSIDIAN THERAPEUTICS, INC., priority 2022, published 2025):
Changes are numbered by the printed parent chain. Names may count otherwise. Like-named read-outs stand apart in the source and are kept apart here.

Key:
[1] = Example 4: dose response of FKBP constructs 160-255, Ec50, Ec90 and fold change (raw and normalized to mCherry); format: cell-based; settings: for FC (fold change): fold change during initial analysis
Protocol: Additional experiments were performed for constructs FKBP-160-292.

[2] = system: Jurkat cells; assay: Tacrolimus dose response of FKBP13-AcGFP-mCherry constructs stably transduced into Jurkat cells, GFP MFI by flow cytometry; format: cell-based; set-up: Basal: unit not given here; settings: for basal AcGFP expression: absence of tacrolimus
Outline: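 GFP geometric MFI was read by flow cytometry in mCherry+ cells and curve-fitted against tacrolimus dose. Cells were Jurkat E6-1, lentivirus-transduced with FKBP13-AcGFP-mCherry fusion constructs until 10-25% mCherry-positive on day 5 post-transduction.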

[3] = FKBP constructs 160-255, not normalized, read-out: EC90
[4] = normalized to mCherry, read-out: EC90 (Norm)

B1: FKBP-198: FKBP13 DRD-AcGFP construct of Table 10 (protein)
chain: HCPIKSRKGDVLHMHYTGKLEDGTEFDSSLPRNQPFVFSLGTGERIKGWDQGLLGMCEGEWRKLVIPSELGYGERGWPPKIPGGATLVFEVELLKIER
modifications: Description of sequence: Construct Name: FKBP-198; Mutation(s): Q72R Q84E A117W V85R DRD K101W
- EC90 [1, 3]: 253 nM
- FC (fold change) [1]: 54.3
- EC90 [1, 4]: 274 nM

B2: FKBP-194 (protein)
chain: B1 chain with W61K, L64V
modifications: Description of sequence: Construct Name: FKBP-194; Mutation(s): Q72R Q84E A117W V85R DRD L104V
- EC90 [1, 3]: 102 nM
- FC (fold change) [1]: 24.8
- EC90 [1, 4]: 122 nM

B3: FKBP-215: combinatorial FKBP13 mutant construct of Table 10, carries M54A (protein)
chain: B1 chain with P3R, M14A, E44G, W61K, K95Y
modifications: Description of sequence: Construct Name: FKBP-215; Mutation(s): Q72R Q84G A117W V85R DRD P43R M54A K135Y
- Basal ([2]; FIG. 48, BR1 (Biorep 1)): 65
- FC ([2]; FIG. 48, BR1 (Biorep 1)): 51.05
- At 10 uM ([2]; FIG. 48, BR1 (Biorep 1)): 3318
- Basal ([2]; FIG. 48, BR2 (Biorep 2)): 59.4
- FC ([2]; FIG. 48, BR2 (Biorep 2)): 53.30
- At 10 uM ([2]; FIG. 48, BR2 (Biorep 2)): 3166
- basal AcGFP expression [2]: lowest basal AcGFP expression
- EC90 [1, 3]: 388 nM
- FC (fold change) [1]: 51.0
- EC90 [1, 4]: 390 nM

B4: FKBP-193 (protein)
chain: B1 chain with D50A, W61K
modifications: Description of sequence: Construct Name: FKBP-193; Mutation(s): Q72R Q84E A117W V85R DRD D90A
- EC90 [1, 3]: 13000 nM
- FC (fold change) [1]: 37.8
- EC90 [1, 4]: 15000 nM

B5: FKBP-201: FKBP13 DRD-AcGFP construct of Table 10 (protein)
chain: B1 chain with H13L, W61K
modifications: Description of sequence: Construct Name: FKBP-201; Mutation(s): Q72R Q84E A117W V85R DRD H53L
- EC90 [1, 3]: 144 nM
- FC (fold change) [1]: 33.1
- EC90 [1, 4]: 153 nM

B6: FKBP-228: combinatorial FKBP13 mutant construct of Table 10 (protein)
chain: B1 chain with W61K, E97R
modifications: Description of sequence: Construct Name: FKBP-228; Mutation(s): Q72R Q84E A117W V85R DRD E137R
- Basal ([2]; FIG. 41): 112
- FC ([2]; FIG. 41): 85
- Peak ([2]; FIG. 41): 8896
- Basal ([2]; FIG. 42, BR1 (Biorep 1)): 103
- FC ([2]; FIG. 42, BR1 (Biorep 1)): 55.15
- At 10 uM ([2]; FIG. 42, BR1 (Biorep 1)): 5680
- Basal ([2]; FIG. 42, BR2 (Biorep 2)): 99.6
- FC ([2]; FIG. 42, BR2 (Biorep 2)): 60.71
- At 10 uM ([2]; FIG. 42, BR2 (Biorep 2)): 6047
- basal AcGFP expression [2]: lowest basal expression
- EC90 [1, 3]: 116 nM
- FC (fold change) [1]: 55.1
- EC90 [1, 4]: 124 nM

B7: FKBP-199: FKBP13 DRD-AcGFP construct of Table 10 (protein)
chain: B1 chain with E58L, W61K
modifications: Description of sequence: Construct Name: FKBP-199; Mutation(s): Q72R Q84E A117W V85R DRD E98L
- EC90 [1, 3]: 71.7 nM
- FC (fold change) [1]: 27.1
- EC90 [1, 4]: 67.5 nM

B8: FKBP-202 (protein)
chain: B1 chain with G9S, M14A, W61K
modifications: Description of sequence: Construct Name: FKBP-202; Mutation(s): Q72R Q84E A117W V85R DRD M54A G49S
- EC90 [1, 3]: 1010 nM
- FC (fold change) [1]: 46.2
- EC90 [1, 4]: 1060 nM
